Source: patent US20250121076A1, “POLYPEPTIDE DRUG CONJUGATE HAVING NOVEL STRUCTURE AND APPLICATION THEREOF” (MEDSHINE DISCOVERY INC., priority 2021, published 2025)
Structures can show the parent of a compound that is named as a salt. Starred links: 1 amine or outer side, 2 acyl side, 3 side chain; linkers in the order of their positions; H or OH if unused. Positions of bridges follow the written chain, without caps; N, C: chain ends. Non-standard residues stand in square brackets, D forms with d. Residues, ends and D or L forms follow the SMILES beside them. Chains are numbered I, II in the order given. *: point of attachment. TATA = O=C(CC[*:1])N1CN(C(=O)CC[*:2])CN(C(=O)CC[*:3])C1; Dolaproine = CO[C@@H]([C@@H]1CCCN1)[C@@H](C)C(=O)O; Dil = CC[C@H](C)[C@H](NC)[C@@H](CC(=O)O)OC; X2 = O=C(CCCC(=O)[*:2])NCCC(=O)[*:1]; PABC = O=C(OCc1ccc(N[*:1])cc1)[*:2]; X1 = C[C@@H](N*)[C@@H](O)c1ccccc1; Hyp = O=C(O)[C@@H]1C[C@@H](O)CN1; hArg = N=C(N)NCCCC[C@H](N)C(=O)O; Cit = NC(=O)NCCC[C@H](N)C(=O)O; Pen = CC(C)(S)[C@H](N)C(=O)O; NMeV = CN[C@H](C(=O)O)C(C)C; Sar = CNCC(=O)O

Tests used:
Stability in plasma = format: in vitro ADME, SD rats; conditions: SD rat plasma, 2 μM, 37° C., up to 240 min
Description: To test the stability of the compounds of the present invention in plasma from rats, Cynomolgus macaques, and humans.
(§1) The corresponding incubation plates, including T0, T10, T30, T60, T120, and T240 incubation plates, were added with a 2 μL working solution of the compound to be tested (100 μM). Three parallel wells were prepared for each sample. Then, 98 μL of blank plasma from SD rats, Cynomolgus macaques, and humans was added to the corresponding incubation plates to which the working solution had been added. All samples were incubated in a 37° C. water bath. […] At the end of each incubation time point, the corresponding incubation plate was removed, added with stop buffer, precipitated, and centrifuged for 20 minutes. Then, 150 μL of the supernatant was analyzed by the LC-MS/MS method. The concentration of the compound to be tested in the sample was semi-quantitatively determined by the liquid chromatography-tandem mass spectrometry (LC-MS/MS) method.

[1] = Pharmacokinetic analysis in rat plasma (6.1, 2 mg/kg); format: in vivo, SD rats; conditions: rat, in vivo, SD rats, single IV 2 mg/kg, plasma
Description: (§2) Experimental purpose: To test the pharmacokinetics of the compounds of the present invention in SD rats.
(§3) 6.1 The pharmacokinetic characteristics of the compound after intravenous injection and oral administration were tested in rats according to a standard protocol. The compound to be tested was formulated into a clear solution using 50 mM acetate buffer (pH=5) in 10% sucrose as a vehicle. Two SD rats were given a single intravenous injection of 2 mg/kg of the compound to be tested. Whole blood was collected at time points of 0.083, 0.25, 0.5, 1, 2, 4, 8, and 24 hours after administration to get plasma. The concentration of the compound to be tested and the concentration of its potential metabolite MMAE were analyzed by the LC-MS/MS method, and the pharmacokinetic parameters were calculated by Phoenix WinNonlin software.

[2] = Pharmacokinetic analysis in rat plasma at different doses (6.2); format: in vivo, SD rats; conditions: rat, in vivo, male SD rats
Description: as §2
as §3, with “6.2 The” for “6.1 The”, “vehicle. Three male” for “vehicle. Two”, “of 2.5 mg/kg, 3.75 mg/kg, or 5” for “of 2”, “1,” for “1, 2,”, “4,” for “4, 8,”, “were calculated.” for “were calculated by Phoenix WinNonlin software.”

[3] = Metabolic stability in hepatocytes; format: in vitro ADME, Cynomolgus macaques; conditions: Cynomolgus macaque hepatocytes, 1 μM, 0.5×10^6 cells/mL
Description: To investigate the metabolic stability of the compounds of the present invention in hepatocytes from Cynomolgus macaques and humans.
Incubations were performed in 96-well plates using an external extraction method. Several 96-well sample precipitation plates, designated T0, T15, T30, T60, T90, T0-MC, T90-MC, and blank matrix, were prepared, respectively. The recovery culture medium and incubation culture medium were removed in advance and placed in a 37° C. water bath for preheating. Frozen hepatocytes from Cynomolgus macaques and humans were removed from a liquid nitrogen tank, recovered, and diluted to 0.51×10^6 cells/mL with the incubation culture medium. […]
At the end of the incubation at the corresponding time point, the incubation plates were removed, from which 25 μL of a compound mixture with the cells was removed and added to sample plates containing 125 μL of stop buffer. […] All samples were mixed uniformly and then analyzed by the LC-MS/MS method.
The concentration of the compound of the present invention in the sample was semi-quantitatively determined by the liquid chromatography-tandem mass spectrometry (LC-MS/MS) method without a standard curve and quality control sample. […]

[4] = Stability incubated in human plasma for 72 hours; format: in vitro ADME, Humans
Description: as §1
The experimental results obtained using the above method but extending the incubation time of the compound to be tested with human plasma to 72 hours are shown in Table 22.

SMILES: CC[C@H](C)[C@@H]([C@@H](CC(=O)N1CCC[C@H]1[C@H](OC)[C@@H](C)C(=O)N[C@H](C)[C@@H](O)c1ccccc1)OC)N(C)C(=O)[C@@H](NC(=O)[C@H](C(C)C)N(C)C(=O)OCc1ccc(NC(=O)[C@H](CCCNC(N)=O)NC(=O)[C@@H](NC(=O)CCCC(=O)NCCC(=O)N(C)CC(=O)N(C)CC(=O)N(C)CC(=O)N(C)CC(=O)N(C)CC(=O)N(C)CC(=O)N(C)CC(=O)N(C)CC(=O)N(C)CC(=O)N(C)CC(=O)N[C@H]2CCCCNC(=O)C[C@@H](C(=O)N[C@H]3CSCCC(=O)N4CN5CN(C4)C(=O)CCSC(C)(C)[C@@H](C(N)=O)NC(=O)[C@H](CCCCNC(=N)N)NC(=O)[C@H](Cc4c[nH]c6ccccc46)NC(=O)[C@@H](CC(=O)O)NC(=O)[C@@H]4CCCN4C(=O)[C@H](Cc4c[nH]cn4)NC(=O)[C@H](CC(C)C)NC(=O)[C@H](CSCCC5=O)NC(=O)[C@H](CC(C)C)NC(=O)[C@@H]4CCCN4C(=O)[C@H](CC(N)=O)NC(=O)[C@H](C(C)C)NC(=O)[C@H](CC(C)C)NC(=O)[C@@H]4C[C@@H](O)CN4C3=O)NC(=O)[C@H](CCCCNC(=N)N)NC2=O)C(C)C)cc1)C(C)C [Acetate salt of PDC_8] (I: [Sar][Sar][Sar][Sar][Sar][Sar][Sar][Sar][Sar][Sar]K[hArg]DC[Hyp]LVNPLCLHP[dD]W[hArg][Pen]-NH2 / II: V[Cit][PABC][NMeV]V[Dil][Dolaproine]-X1; lactam I:11-I:13; linker I:14-I:21-I:28 via TATA; linker I:N-II:N via X2)
- half-life (Stability in plasma): > 9.63 h
- AUC(0-t) [1]: 0.518 µM·h
- C0 [1]: 1670 nM
- clearance [1]: 14.4 mL/min/kg
- half-life [1]: 0.29 h
- Vd ([1]; read-out: Vdss): 0.28 L/kg
- AUC(0-t) ([2]; single IV 2.5 mg/kg): 0.765 µM·h
- Cmax ([2]; single IV 2.5 mg/kg): 1960 nM
- AUC(0-t) ([2]; single IV 3.75 mg/kg): 3.09 µM·h
- Cmax ([2]; single IV 3.75 mg/kg): 2750 nM
- AUC(0-t) ([2]; single IV 5 mg/kg): 5.65 µM·h
- Cmax ([2]; single IV 5 mg/kg): 4590 nM
- half-life [3]: > 3.61 h
- CLint scaled ([3]; read-out: CLint (liver)): < 23 mL/min/kg
- MMAE generation % ([4]; test time point 0): 0.1%
- PDC_8 remaining % ([4]; test time point 0): 100.0%
- MMAE generation % ([4]; test time point 0.5): 0.2%
- remaining at 0.5 h, 2 µM ([4]; test time point 0.5, read-out: PDC_8 remaining %): 96.3%
- MMAE generation % ([4]; test time point 1): 0.5%
- remaining at 1 h, 2 µM ([4]; test time point 1, read-out: PDC_8 remaining %): 103%
- MMAE generation % ([4]; test time point 2): 0.5%
- remaining at 2 h, 2 µM ([4]; test time point 2, read-out: PDC_8 remaining %): 86.6%
- MMAE generation % ([4]; test time point 4): 0.6%
- remaining at 4 h, 2 µM ([4]; test time point 4, read-out: PDC_8 remaining %): 101%
- MMAE generation % ([4]; test time point 24): 0.6%
- remaining at 24 h, 2 µM ([4]; test time point 24, read-out: PDC_8 remaining %): 89.9%
- MMAE generation % ([4]; test time point 48): 0.0%
- remaining at 48 h, 2 µM ([4]; test time point 48, read-out: PDC_8 remaining %): 96%
- MMAE generation % ([4]; test time point 72): 3.2%
- remaining at 72 h, 2 µM ([4]; test time point 72, read-out: PDC_8 remaining %): 78%
